Test results published in patent US8287851B2, “Use of interleukin 17E for the treatment of cancer” (Lorus Therapeutics Inc., priority 2005, dated 2012).

T1: IL17BR interaction with protein tyrosine kinase Lyn (Mus musculus, UniProt Q9JIP3)
T1 construct: using the B cell lymphoma cell line WEHI-231; endogenous in cells; host or cells: WEHI-231 B cell lymphoma cells
T1 sequence (Q9JIP3 18-499): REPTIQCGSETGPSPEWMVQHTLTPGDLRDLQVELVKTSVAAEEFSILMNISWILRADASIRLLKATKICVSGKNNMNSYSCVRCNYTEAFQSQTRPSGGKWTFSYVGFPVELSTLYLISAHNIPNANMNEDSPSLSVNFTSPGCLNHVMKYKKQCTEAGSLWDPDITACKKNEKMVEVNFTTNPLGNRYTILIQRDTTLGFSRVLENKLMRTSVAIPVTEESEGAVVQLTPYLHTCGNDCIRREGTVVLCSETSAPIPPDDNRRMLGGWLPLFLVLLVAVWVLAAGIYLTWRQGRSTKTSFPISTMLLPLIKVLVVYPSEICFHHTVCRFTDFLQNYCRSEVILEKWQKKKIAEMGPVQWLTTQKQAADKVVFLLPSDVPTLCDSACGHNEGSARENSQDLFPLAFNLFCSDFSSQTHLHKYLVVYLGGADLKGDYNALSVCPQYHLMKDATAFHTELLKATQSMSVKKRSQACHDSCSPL

B1: human IL-17E: Recombinant human IL-17E from PeproTech; two 145 amino acid chains, predominant form starting at Tyr 33 of GenBank AAG40848 (protein, listed as Homo sapiens)
chain: YSHWPSCCPSKGQDTSEELLRWSTVPVPPLEPARPNRHPESCRASEDGPLNSRAISPWRYELDRDLNRLPQDLYHARCLCPHCVSLQTGSHMDPRGNSELLYHNQTVFYRRPCHGEKGTHKGYCLERRLYRVSLACVCVRPRVMG
B2: murine IL-17E: Murine IL-17E from R&D Systems; predominant form starting at Val 17 of GenBank NP 542767 (protein)
chain: VSLRIQEGCSHLPSCCPSKEQEPPEEWLKWSSASVSPPEPLSHTHHAESCRASKDGPLNSRAISPWSYELDRDLNRVPQDLYHARCLCPHCVSLQTGSHMDPLGNSVPLYHNQTVFYRRPCHGEEGTHRRYCLERRLYRVSLACVCVRPRVMA

What was measured:
[1] = target: T1, IL17BR interaction with protein tyrosine kinase Lyn; assay: Coimmunoprecipitation of Lyn and IL17BR in WEHI-231 cells; assay type: cell-based; details: 0.1 μg per 5×10^6 WEHI-231 cells, 5 minutes at 37° C.
Procedure: The effect of interleukin 17E on the induction of interaction of its receptor IL17BR with the protein tyrosine kinase Lyn was examined using the B cell lymphoma cell line WEHI-231.
A total of 5×10^6 cells per sample were incubated with 0.1 μg of human IL17E (hIL-17E) for 5 minutes at 37° C. Cells were lysed in lysis buffer for 30 minutes on ice, followed by centrifugation for 10 minutes. The tyrosine kinase Lyn was immunoprecipitated from 350 μg of protein lysate using rabbit anti-Lyn antibodies coupled to Protein A Sepharose beads. Immunoprecipitated samples containing approximately 25 μg of protein were separated by SDS-PAGE, followed by transfer to membranes for Western blotting.
For detection of phosphorylated Lyn, blots were incubated with anti-phosphotyrosine antibodies, followed by horseradish peroxidase (HRP)-conjugated anti-mouse antibodies.
For detection of IL17BR, blots were incubated with biotin-conjugated-rat anti-IL17BR antibodies, followed by HRP-conjugated streptavidin.
To assess equivalent loading of Lyn, blots were incubated with rabbit anti-Lyn antibodies, followed by HRP-conjugated-anti-rabbit antibodies.
All blots were exposed to autoradiography film and developed to detect chemiluminescence.

IL-5 = assay: Serum IL-5 in tumour-engrafted mice (ELISA); assay type: in vivo, CD1-nude mice
Procedure: The expression of IL-5 in serum was examined in tumour-engrafted mice treated with IL-17E. CD1-nude mice were engrafted with either C8161 human melanoma cells or MiaPaCa2 pancreatic cancer cells and treated with either PBS or murine IL-17E as described previously. Serum samples were collected individually from each mouse at the endpoint of the experiment, and IL-5 levels were determined by ELISA assay (BD OptEIA; BD Biosciences), according to the manufacturer's instructions. Immunoassay plates were coated with anti-mouse IL-5 monoclonal antibody as a capture antibody and incubated with serial dilutions of mouse sera. Plates were washed three times with wash buffer and blocked for 1 hr at room temp. Plates were incubated with biotinylated anti-mouse IL-5 monoclonal antibody and avidin-horseradish peroxidase conjugate for 1 hour, followed by seven washes. Substrate solution was added for 30 minutes, followed by stop solution, prior to measurement of absorbance (450/570 nm). Statistical analysis was performed to compare IL-5 levels. P values <0.05 were considered to be significant.

Molecule | coimmunoprecipitation of Lyn and IL17BR [1] | serum levels of IL-5 as compared to PBS (IL-5; mice engrafted with human melanoma C8161 cells) | serum levels of IL-5 as compared to PBS (IL-5; mice engrafted with human pancreatic cancer MiaPaCa2 cells)
B1 | coimmunoprecipitated | – | –
B2 | – | significantly higher | significantly higher
